Experimental data published in the FLAb antibody collection.
Numbering of substitutions follows the chain as printed. “And” between values parts separate entries of the source, which are not always exact repeats. Equal values may be shown once.

B1: unnamed (protein)
chain 1: QVQLVQSGGGLVQAGGSLRLSCAASGGTFATSPMGWLRQAPGKGTEFVAAISPSGGDRIYADSVKGRFTISRDNAGYFIYLQMNSLKPEDTAVYYCAVRRRFDGTSYYTGDYDSWGQGTLVTVSS
chain 2: EIVLTQSPGTLSLSPGERATLSCRASQSVSSSYLAWYQQKPGQAPRLLIYDASSRATGIPDRFSGSGSGTDFTLTISRLEPEDFAVYYCQQYSYSPVTFGQGTKVEIK
B2: unnamed (protein)
chain 1: QVQLVQSGAEVKKPGASVKISCKASGYSFTAYYIHWVKQAPGQGLEWIGYISNYNRATNYNQKFKGRVTFTTDTSTSTAYMELRSLRSDDTAVYYCARDYDYDVGMDYWGQGTLVTVSS
chain 2: DIVMTQSPDSLAVSLGERATISCRASESVDNYGISFMKWFQQKPGQPPKLLIYAASNQGSGVPDRFSGSGSGTDFTLTISSLQAEDVAVYYCQQSKEVPWTFGGGTKVEIK
B3: unnamed (protein)
chain 1: QVQLVQSGAEVKKPGASVKVSCKASGYTFTSHWMHWVRQAPGQGLEWIGEFNPSNGRTNYNEKFKSKATMTVDTSTNTAYMELSSLRSEDTAVYYCASRDYDYDGRYFDYWGQGTLVTVSS
chain 2: DIQMTQSPSSLSASVGDRVTITCSASSSVTYMYWYQQKPGKAPKLLIYDTSNLASGVPSRFSGSGSGTDYTFTISSLQPEDIATYYCQQWSSHIFTFGQGTKVEIK
B4: unnamed (protein)
chain 1: QVQLQESGPGLVKPSQTLSLTCTVSGGSISSGDYYWSWIRQPPGKGLEWIGYIYYSGSTDYNPSLKSRVTMSVDTSKNQFSLKVNSVTAADTAVYYCARVSIFGVGTFDYWGQGTLVTVSS
chain 2: EIVMTQSPATLSLSPGERATLSCRASQSVSSYLAWYQQKPGQAPRLLIYDASNRATGIPARFSGSGSGTDFTLTISSLEPEDFAVYYCHQYGSTPLTFGGGTKAEIK
B5: unnamed (protein)
chain 1: QVQLVESGGGVVQPGRSLRLDCKASGITFSNSGMHWVRQAPGKGLEWVAVIWYDGSKRYYADSVKGRFTISRDNSKNTLFLQMNSLRAEDTAVYYCATNDDYWGQGTLVTVSS
chain 2: B4 chain 2 with M4L, H89Q, Y91S, G92S, S93N, T94W, L96R, G100Q, A104V
B6: unnamed (protein)
chain 1: QVQLQQPGAELVEPGGSVKLSCKASGYTFTSHWMHWVKQRPGQGLEWIGEINPSSGRNNYNEKFKSKATLTVDKSSSTAYMQFSSLTSEDSAVYYCVRYYGYDEAMDYWGQGTSVTVSS
chain 2: DIVMTQAAFSNPVTLGTSASISCRSSKSLLHSNGITYLYWYLQKPGQSPQLLIYQMSNLASGVPDRFSSSGSGTDFTLRISRVEAEDVGVYYCAQNLELPYTFGGGTKLEIK
B7: unnamed (protein)
chain 1: QVQLVQSGAEVKKPGASVKVSCKVSGYTLTELSIHWVRQAPGKGLEWMGGFDPEENEIVYAQRFQGRVTMTEDTSTDTAYMELSSLRSEDTAVYYCAIVGSFSPLTLGLWGQGTMVTVSS
chain 2: QSVLTQPPSVSGAPGQRVTISCTGSGSNIGAPYDVSWYQQLPGTAPKLLIYHNNKRPSGVPDRFSGSKSGTSASLAITGLQAEDEADYYCATVEAGLSGSVFGGGTKLTVL
B8: unnamed (protein)
chain 1: QVTLRESGPALVKPTQTLTLTCTFSGFSLSTAGMSVGWIRQPPGKALEWLADIWWDDKKHYNPSLKDRLTISKDTSKNQVVLKVTNMDPADTATYYCARDMIFNFYFDVWGQGTTVTVSS
chain 2: DIQMTQSPSTLSASVGDRVTITCSASSRVGYMHWYQQKPGKAPKLLIYDTSKLASGVPSRFSGSGSGTEFTLTISSLQPDDFATYYCFQGSGYPFTFGGGTKVEIK
B9: unnamed (protein)
chain 1: EVQLVESGGGLVKPGGSLKLSCAASGYTFTSYVMHWVRQAPGKGLEWIGYINPYNDGTKYNEKFQGRVTISSDKSISTAYMELSSLRSEDTAMYYCARGTYYYGTRVFDYWGQGTLVTVSS
chain 2: DIVMTQSPATLSLSPGERATLSCRSSKSLQNVNGNTYLYWFQQKPGQSPQLLIYRMSNLNSGVPDRFSGSGSGTEFTLTISSLEPEDFAVYYCMQHLEYPITFGAGTKLEIK
B10: unnamed (protein)
chain 1: EVQLVQSGAEVKKPGESLKISCKGSGYIFTNYWIAWVRQMPGKGLESMGIIYPGDSDIRYSPSFQGQVTISADKSITTAYLQWSSLKASDTAMYYCARHDIEGFDYWGRGTLVTVSS
chain 2: EIVLTQSPGTLSLSPGERATLSCRASQSVSSSFFAWYQQKPGQAPRLLIYGASSRATGIPDRLSGSGSGTDFTLTITRLEPEDFAVYYCQQYDSSAITFGQGTRLEIK
B11: unnamed (protein)
chain 1: EVQLVESGGGLVKPGGSLKLSCAASGFAFSIYDMSWVRQTPEKCLEWVAYISSGGGTTYYPDTVKGRFTISRDNAKNTLYLQMSSLKSEDTAMYYCARHSGYGTHWGVLFAYWGQGTLVTVSA
chain 2: DIQMTQTTSSLSASLGDRVTISCRASQDISNYLNWYQQKPDGTVKLLIYYTSILHSGVPSRFSGSGSGTDYSLTISNLEQEDFATYFCQQGNTLPWTFGCGTKLEI
B12: unnamed (protein)
chain 1: QVTLRESGPALVKPTQTLTLTCTVSGFSLTSYSVHWVRQPPGKGLEWLGVIWASGGTDYNSALMSRLSISKDTSRNQVVLTMTNMDPVDTATYYCARDPPSSLLRLDYWGRGTPVTVSS
chain 2: DIVMTQSPDSLAVSLGERATINCKSSQSLLNSGNQKNYLAWYQQKPGQPPKLLIYGASTRESGVPDRFSGSGSGTDFTLTISSLQAEDVAVYYCQNVHSFPFTFGGGTKLEIK
B13: unnamed (protein)
chain 1: EVQLQQSGPDLVKPGASVKISCKASGYSFTGYYMHWVKQSPGKGLEWIGRINPNNGVTLYNQKFKDKATLTVDKSSTTAYMELRSLTSEDSAVYYCARSTMITNYVMDYWGQGTSVTVSS
chain 2: SIVMTQTPTSLLVSAGDRVTITCKASQSVSNDVAWYQQKPGQSPKLLISYTSSRYAGVPDRFSGSGYGTDFTLTISSVQAEDAAVYFCQQDYNSPPTFGGGTKLEIK
B14: unnamed (protein)
chain 1: QVQLVQSGAEVKKPGASVKVSCKAFGYPFTDYLLHWVRQAPGQGLEWVGWLNPYSGDTNYAQKFQGRVTMTRDTSISTAYMELSRLRSDDTAVYYCTRTTLISVYFDYWGQGTMVTVSS
chain 2: DIQMTQSPSSVSASVGDRVTIACRASQNIRNILNWYQQRPGKAPQLLIYAASNLQSGVPSRFSGSGSGTDFTLTINSLQPEDFATYYCQQSYSMPRTFGGGTKLEIK
B15: unnamed (protein)
chain 1: EVQLVESGGDLVQPGRSLRLSCAASGFIFSNYGMSWVRQAPGKGLEWVATISSASTYSYYPDSVKGRFTISRDNAKNSLYLQMNSLRVEDTALYYCGRHSDGNFAFGYWGQGTLVTVSS
chain 2: DVLMTQSPLSLPVTPGEPASISCRSSRNIVHINGDTYLEWYLQKPGQSPQLLIYKVSNRFSGVPDRFSGSGSGTDFTLKISRVEAEDVGVYYCFQGSLLPWTFGQGTKVEIK
B16: unnamed (protein)
chain 1: QVQLQESGPGLVKPSETLSLTCTVSGFSLLSYGVHWVRQPPGKGLEWLGVIWTGGTTNYNSALMSRFTISKDDSKNTVYLKMNSLKTEDTAIYYCARYYYGMDYWGQGTLVTVSS
chain 2: DIQMTQSPSSLSASVGDRVTITCKASQDVRNTVAWYQQKPGKAPKLLIYSSSYRNTGVPDRFSGSGSGTDFTLTISSLQAEDVAVYYCQQHYITPYTFGGGTKVEIK
B17: unnamed (protein)
chain 1: QVQLVQSGAEVKKPGASVKVSCKASGFNIKDTYIHWVRQAPGQRLEWMGRIDPANGYTKYDPKFQGRVTITADTSASTAYMELSSLRSEDTAVYYCAREGYYGNYGVYAMDYWGQGTLVTVSS
chain 2: DIQMTQSPSSLSASVGDRVTITCKTSQDINKYMAWYQQTPGKAPRLLIHYTSALQPGIPSRFSGSGSGRDYTFTISSLQPEDIATYYCLQYDNLWTFGQGTKVEIK
B18: unnamed (protein)
chain 1: QVQLQQSGPELKKPGASVKVSCKDSGYAFSSSWMNWVRQAPGQGLEWIGRIYPGDGDTNYNGKFQGRVTITADKSSSTAYMELSSLRSEDTAVYFCARSGLLRYAMDYWGQGTLVTVSS
chain 2: DIQMTQSPSSLSASVGDRVTITCRASQDIRNYLNWYQQKPGKAVKLLIYYTSRLLPGVPSRFSGSGSGTDYSLTISSQEQEDIGTYFCQQGNTLPWTFGQGTKVEIR
B19: unnamed (protein)
chain 1: QVQLVQSGAEVKKPGSSVMVSCQASGGLLEDYIINWVRQAPGQGPEWMGGIIPVLGTVHYGPKFQGRVTITADESTDTAYMELSSLRSEDTAMYYCATETALVVSETYLPHYFDNWGQGTLVTVSS
chain 2: DIQMTQSPSSLSAAVGDRVTITCQASQDIVNYLNWYQQKPGKAPKLLIYVASNLETGVPSRFSGSGSGTDFSLTISSLQPEDVATYYCQQYDNLPLTFGGGTKVEIK

Experiment: patients with anti-drug antibodies; higher = more immunogenic

| Protein | patients with anti-drug antibodies |
| --- | --- |
| B1 | 0% |
| B2 | 29% |
| B3 | 10% |
| B4 | 4.1% |
| B5 | 7.7% |
| B6 | 0% |
| B7 | 3.1% |
| B8 | 1.5% |
| B9 | 17.5% and 1% |
| B10 | 3.3% |
| B11 | 59% |
| B12 | 13% |
| B13 | 72.5% |
| B14 | 0.9% |
| B15 | 4.2% |
| B16 | 21.2% |
| B17 | 9% |
| B18 | 2.5% |
| B19 | 28% |
